B1: SF3B1_HUMAN (protein, UniProt O75533 1-1304, looked up)
Splicing factor 3B subunit 1: MAKIAKTHEDIEAQIREIQGKKAALDEAQGVGLDSTGYYDQEIYGGSDSRFAGYVTSIAATELEDDDDDYSSSTSLLGQKKPGYHAPVALLNDIPQSTEQYDPFAEHRPPKIADREDEYKKHRRTMIISPERLDPFADGGKTPDPKMNARTYMDVMREQHLTKEEREIRQQLAEKAKAGELKVVNGAAASQPPSKRKRRWDQTADQTPGATPKKLSSWDQAETPGHTPSLRWDETPGRAKGSETPGATPGSKIWDPTPSHTPAGAATPGRGDTPGHATPGHGGATSSARKNRWDETPKTERDTPGHGSGWAETPRTDRGGDSIGETPTPGASKRKSRWDETPASQMGGSTPVLTPGKTPIGTPAMNMATPTPGHIMSMTPEQLQAWRWEREIDERNRPLSDEELDAMFPEGYKVLPPPAGYVPIRTPARKLTATPTPLGGMTGFHMQTEDRTMKSVNDQPSGNLPFLKPDDIQYFDKLLVDVDESTLSPEEQKERKIMKLLLKIKNGTPPMRKAALRQITDKAREFGAGPLFNQILPLLMSPTLEDQERHLLVKVIDRILYKLDDLVRPYVHKILVVIEPLLIDEDYYARVEGREIISNLAKAAGLATMISTMRPDIDNMDEYVRNTTARAFAVVASALGIPSLLPFLKAVCKSKKSWQARHTGIKIVQQIAILMGCAILPHLRSLVEIIEHGLVDEQQKVRTISALAIAALAEAATPYGIESFDSVLKPLWKGIRQHRGKGLAAFLKAIGYLIPLMDAEYANYYTREVMLILIREFQSPDEEMKKIVLKVVKQCCGTDGVEANYIKTEILPPFFKHFWQHRMALDRRNYRQLVDTTVELANKVGAAEIISRIVDDLKDEAEQYRKMVMETIEKIMGNLGAADIDHKLEEQLIDGILYAFQEQTTEDSVMLNGFGTVVNALGKRVKPYLPQICGTVLWRLNNKSAKVRQQAADLISRTAVVMKTCQEEKLMGHLGVVLYEYLGEEYPEVLGSILGALKAIVNVIGMHKMTPPIKDLLPRLTPILKNRHEKVQENCIDLVGRIADRGAEYVSAREWMRICFELLELLKAHKKAIRRATVNTFGYIAKAIGPHDVLATLLNNLKVQERQNRVCTTVAIAIVAETCSPFTVLPALMNEYRVPELNVQNGVLKSLSFLFEYIGEMGKDYIYAVTPLLEDALMDRDLVHRQTASAVVQHMSLGVYGFGCEDSLNHLLNYVWPNVFETSPHVIQAVMGALEGLRVAIGPCRMLQYCLQGLFHPARKVRDVYWKIYNSIYIGSQDALIAHYPRIYNDDKNTYIRYELDYIL
B2: TR150_HUMAN (protein, UniProt Q9Y2W1 2-955, looked up)
Thyroid hormone …: SKTNKSKSGSRSSRSRSASRSRSRSFSKSRSRSRSLSRSRKRRLSSRSRSRSYSPAHNRERNHPRVYQNRDFRGHNRGYRRPYYFRGRNRGFYPWGQYNRGGYGNYRSNWQNYRQAYSPRRGRSRSRSPKRRSPSPRSRSHSRNSDKSSSDRSRRSSSSRSSSNHSRVESSKRKSAKEKKSSSKDSRPSQAAGDNQGDEAKEQTFSGGTSQDTKASESSKPWPDATYGTGSASRASAVSELSPRERSPALKSPLQSVVVRRRSPRPSPVPKPSPPLSSTSQMGSTLPSGAGYQSGTHQGQFDHGSGSLSPSKKSPVGKSPPSTGSTYGSSQKEESAASGGAAYTKRYLEEQKTENGKDKEQKQTNTDKEKIKEKGSFSDTGLGDGKMKSDSFAPKTDSEKPFRGSQSPKRYKLRDDFEKKMADFHKEEMDDQDKDKAKGRKESEFDDEPKFMSKVIGANKNQEEEKSGKWEGLVYAPPGKEKQRKTEELEEESFPERSKKEDRGKRSEGGHRGFVPEKNFRVTAYKAVQEKSSSPPPRKTSESRDKLGAKGDFPTGKSSFSITREAQVNVRMDSFDEDLARPSGLLAQERKLCRDLVHSNKKEQEFRSIFQHIQSAQSQRSPSELFAQHIVTIVHHVKEHHFGSSGMTLHERFTKYLKRGTEQEAAKNKKSPEIHRRIDISPSTFRKHGLAHDEMKSPREPGYKAEGKYKDDPVDLRLDIERRKKHKERDLKRGKSRESVDSRDSSHSRERSAEKTEKTHKGSKKQKKHRRARDRSRSSSSSSQSSHSYKAEEYTEETEEREESTTGFDKSRLGTKDFVGPSERGGGRARGTFQFRARGRGWGRGNYSGNNNNNSNNDFQKRNREEEWDPEYTPKSKKYYLHDDREGEGSDKWVSRGRGRGAFPRGRGRFMFRKSSTSPKWAHDKFSGEEGEIEDDESGTENREEKDNIQPTTE

Test system: KDM4A-I71AzF
Assay: CASI: photo-crosslinking with HEK293T cell extracts, StrepTactin enrichment and LC-MS/MS proteomics;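 note: lysates from HEK293T cells pretreated with a KDM4 inhibitor to raise proteome methylation, affinity-purified after ±UV, gel-resolved, trypsin-digested, with exclusive unique peptides per protein averaged per condition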
Assay type: binding, human
Conditions: sheet "Final results but with 0.01"

| Molecule | Fold change (+UV/-UV) |
| --- | --- |
| B1 | 2 |
| B2 | 1.333 |
